# B1: hCR2 (SCR1-4)-Fc (Fc fusion)
# chain: ISCGSPPPILNGRISYYSTPIAVGTVIRYSCSGTFRLIGEKSLLCITKDKVDGTWDKPAPKCEYFNKYSSCPEPIVPGGYKIRGSTPYRHGDSVTFACKTNFSMNGNKSVWCQANNMWGPTRLPTCVSVFPLECPALPMIHNGHHTSENVGSIAPGLSVTYSCESGYLLVGEKIINCLSSGKWSAVPPTCEEARCKSLGRFPNGKVKEPPILRVGVTANFFCDEGYRLQGPPSSRCVIAGQGVAWTKMPVCEE
# Assays:
# Assay in all cases: SPR
# hC3dg (aa 955-1303)-Fc = hC3dg (aa 955-1303)-Fc (human, UniProt P01024 955-1303)
# [1] = target: hC3d(s)-Fc (Cys to Ser variant of hC3d-Fc) (human, UniProt P01024 1001-1303)
# [2] = target: native hC3d (containing 9th cysteine)-Fc (human, UniProt P01024 1001-1303)
# Chain of native hC3d (containing 9th cysteine)-Fc (P01024 1001-1303): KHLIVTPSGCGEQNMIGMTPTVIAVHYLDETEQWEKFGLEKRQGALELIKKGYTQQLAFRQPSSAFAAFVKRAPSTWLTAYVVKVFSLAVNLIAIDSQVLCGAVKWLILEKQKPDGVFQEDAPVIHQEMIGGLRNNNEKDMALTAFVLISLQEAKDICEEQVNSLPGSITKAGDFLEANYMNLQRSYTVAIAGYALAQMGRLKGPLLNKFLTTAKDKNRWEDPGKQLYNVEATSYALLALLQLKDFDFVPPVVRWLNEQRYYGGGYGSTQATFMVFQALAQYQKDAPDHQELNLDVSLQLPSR
# Chain of hC3dg (aa 955-1303)-Fc (P01024 955-1303): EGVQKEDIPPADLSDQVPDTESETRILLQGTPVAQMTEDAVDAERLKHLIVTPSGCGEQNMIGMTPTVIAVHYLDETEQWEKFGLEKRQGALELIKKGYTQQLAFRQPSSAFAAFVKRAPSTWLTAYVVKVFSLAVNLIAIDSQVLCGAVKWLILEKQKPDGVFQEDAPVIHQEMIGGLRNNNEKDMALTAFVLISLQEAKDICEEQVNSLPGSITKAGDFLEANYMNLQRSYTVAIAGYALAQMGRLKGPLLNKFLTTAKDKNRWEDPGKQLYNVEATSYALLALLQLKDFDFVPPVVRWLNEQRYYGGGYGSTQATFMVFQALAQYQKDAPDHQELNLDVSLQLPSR
# Chain of hC3d(s)-Fc (Cys to Ser variant of hC3d-Fc) (P01024 other isoform, or with tags, fused parts or gaps mutant): as the sequence (P01024 1001-1303) above, with C10S counted along it
binder,measurement,setting,value
B1,Kd,hC3dg (aa 955-1303)-Fc,3.17 nM
same,Kd,[1],7.66 nM
same,Kd,[2],5.18 nM

# — PMC5849677 (2018)
